Patent publication US20100279930A1 (published 2010)
Substitutions are numbered along the chain they refer to. No end group written: not given here.

B1: 4057255 (protein)
chain: CAPLEPVYPGDNATPEQMARYAADLRRYINKLTRPRYCAPLEPVYPGDNATPEQMARYAADLRRYINKLTRPRY
B2: 4057260 (protein)
chain: B1 chain with V7E, N12D, E16Q, R20K, V44E, N49D, E53Q, R57K

molecular target: T1, human Y4 receptor (human, UniProt P50391 1-375); test: 125I-PP displacement
T1 sequence (P50391 whole entry): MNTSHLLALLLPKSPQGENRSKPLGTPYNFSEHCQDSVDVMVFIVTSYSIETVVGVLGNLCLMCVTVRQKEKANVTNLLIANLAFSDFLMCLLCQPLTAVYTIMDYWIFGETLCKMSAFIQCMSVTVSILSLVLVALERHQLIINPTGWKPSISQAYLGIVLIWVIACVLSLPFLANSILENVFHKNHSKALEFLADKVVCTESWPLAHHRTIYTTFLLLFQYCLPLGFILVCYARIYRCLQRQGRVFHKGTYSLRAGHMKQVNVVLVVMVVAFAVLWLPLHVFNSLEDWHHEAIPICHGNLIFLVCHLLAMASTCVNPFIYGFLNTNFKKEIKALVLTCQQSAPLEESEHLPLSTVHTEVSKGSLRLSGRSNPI

In order of falling IC50:
1. GAPLEPHAPGDNATPEEMAKYAAELRRYINKLTRPRY (ends and bridges not checked) [compound of SEQ ID NO:1090 (code 4059937)]  0.209 nM
2. PAPLEPKYPGDNATPEELARYAAELRRYINKLTRPRY [4060138]  0.136 nM
3. PAPLEPHFPGDNATPEEMAKYAAELRRYINKLTRPRY [4059940]  0.115 nM
4. PAPLEPEYPGDDATPEQMAKYAAELRRYINKLTRPRY [4060205]  0.112 nM
5. PAPLEPHYPGDNATPEEMAKYAAELRRYLNKLTRPRY [4059951]  0.093 nM
6. GAPLEPHFPGDNATPEEMAKYAAELRRYINKLTRPRY (ends and bridges not checked) [compound of SEQ ID NO:1092]  0.09 nM
7. GAPLEPTYPGDNATPEQLAKYAAELRRYINKLTRPRY [4060207]  0.09 nM
8. GAPLEPTYPGDNATPEQLARYYSELRRYINKLTRPRY [4060211]  0.075 nM
9. AAPLEPHYPGDNATPEQLARYYSELRRYINKLTRPRY [4059969]  0.05 nM

molecular target: T1, human Y4 receptor; test: 125I-PP displacement; remark: another data set of the same source

In order of falling IC50:
1. B1  0.22 nM
2. B2  0.209 nM
3. PAPLEPVYPGDNATPEQDAKYAADLRRYINKLTRPRY [4057147]  0.199 nM
4. HPLEPEYPGDDATPQQMARYAAELRRYINKLTRPRY [4057275]  0.162 nM
5. PAPLEPTYPGDNATPEQMAKYAADLRRYINKLTRPRY [4057229]  0.143 nM
6. PAPLEPVYPGDNATPEQMAHYAAELRRYINKLTRPRY [4057152]  0.141 nM
7. PAPLEPFYPGDNATPEQMAKYAADLRRYINKLTRPRY [4057233]  0.13 nM
8. PAPLEPEYPGDNATPEQMAKYAADLRRYINKLTRPRY [4057232]  0.128 nM
9. PAPLEPEYPGDDATPQQMAHYAAELRRYINKLTRPRY [4057140]  0.126 nM
10. AAPLEPVYPGDNATPEQMARYAAELRRYINKLTRPRY [4057161]  0.125 nM
11. PAPLEPTYPGDDATPQEMAKYAAELRRYINKLTRPRY [4057444]  0.116 nM
12. DAPLEPVYPGDNATPEQMARYAADLRRYINKLTRPRY [4057337]  0.109 nM
13. PAPLEPTYPGDNATPEEMAKYAAELRRYINKLTRPRY [4057446]  0.109 nM
14. PAPLEPTYPGDDATPEEMAKYAAELRRYINKLTRPRY [4057445]  0.107 nM
15. EPLEPEYPGDDATPQQMARYAAELRRYINKLTRPRY [4057274]  0.103 nM
16. PAPLEPSYPGDDATPQQMAKYAAELRRYINKLTRPRY [4057442]  0.101 nM
17. DAPLEPEYPGDDATPQQMARYAAELRRYINKLTRPRY [4057135]  0.097 nM
18. DPLEPEYPGDDATPQQMARYAAELRRYINKLTRPRY [4057277]  0.093 nM
19. GAPLEPVYPGDNATPEQMARYAADLRRYINKLTRPRY [4057336]  0.09 nM
20. PAPLEPTYPGDNATPEQLAKYAAELRRYINKLTRPRY [4057440]  0.089 nM
21. GAPLEPVYPGDNATPEQMARYAAELRRYINKLTRPRY [4057163]  0.088 nM
22. PAPLEPEYPGDDATPQQLAKYAAELRRYINKLTRPRY [4057441]  0.088 nM
23. PLEPEYPGDDATPQQMAHYAAELRRYINKLTRPRY [4057138]  0.086 nM
24. GPLEPEYPGDDATPQQMARYAAELRRYINKLTRPRY [4057276]  0.085 nM
25. APLEPVYPGDNATPEQMAKYYSELRRYINKLTRPRY [4057270]  0.085 nM
26. APLEPEYPGDDATPQQMAKYAADLRRYINKLTRPRY [4057257]  0.083 nM
27. AAPLEPEYPGDDATPQQMAKYAADLRRYINKLTRPRY [4057259]  0.083 nM
28. PLEPVYPGDNATPEQMARYAADLRRYINKLTRPRY [4057334]  0.082 nM
29. PAPLEPVYPGDNATPEQMARYAADLRRYINKLTRPRY [4057335]  0.08 nM
30. PKPLEPEYPGDDATPQQMARYAAELRRYINKLTRPRY [4057279]  0.08 nM
31. PAPLEPVYPGDNATPEQVAKYAADLRRYINKLTRPRY [4057146]  0.08 nM
32. HAPLEPVYPGDNATPEQMARYAADLRRYINKLTRPRY [4057338]  0.078 nM
33. APLEPEYPGDDATPQQMAHYAAELRRYINKLTRPRY [4057139]  0.078 nM
34. PAPLEPDYPGDDATPQQMAKYAAELRRYINKLTRPRY [4057443]  0.078 nM
35. PAPLEPEYPGDDATPQQMAKYAADLRRYINKLTRPRY [4057258]  0.078 nM
36. PLEPEYPGDDATPQQMAKYAADLRRYINKLTRPRY [4057256]  0.073 nM
37. PAPLEPVYPGDNATPEQLAKYAADLRRYINKLTRPRY [4057145]  0.07 nM
38. PAPLEPVYPGDNATPEQTAKYAADLRRYINKLTRPRY [4057148]  0.069 nM
39. HAPLEPVYPGDNATPEQMARYAAELRRYINKLTRPRY [4057228]  0.068 nM
40. GAPLEPEYPGDDATPQQMARYAAELRRYINKLTRPRY [4057136]  0.064 nM
41. AAPLEPVYPGDNATPEQMAKYYSELRRYINKLTRPRY [4057271]  0.062 nM
42. PAPLEPVYPGDDATPQQMAKYAADLRRYINKLTRPRY [4057273]  0.061 nM
43. PAPLEPVYPGDNATPEQMARYAAELRRYINKLTRPRY [4057162]  0.06 nM
44. PAPLEPVYPGDNATPEQMAKYAADLRRYINKLTRPRF [4057235]  0.059 nM
45. APLEPVYPGDNATPEQMARYAAELRRYINKLTRPRY [4057160]  0.059 nM
46. PLEPEYPGDDATPQQMARYAAELRRYINKLTRPRY [4057153]  0.057 nM
47. PAPLEPVYPGDNATPEQMAKYAAELRRYINKLTRPRY [4057151]  0.056 nM
48. PLEPVYPGDNATPEQMAKYAADLRRYINKLTRPRY [4057261]  0.056 nM
49. PLEPVYPGDNATPEQMARYAAELRRYINKLTRPRY [4057159]  0.053 nM
50. AKPLEPEYPGDDATPQQMARYAAELRRYINKLTRPRY [4057280]  0.049 nM
